According to patent publication US9091695B2, “Methods and systems for quantification of peptides and other analytes” (Laboratory Corporation of America Holdings, priority 2007, dated 2015):

Assays:
[1] = Stock solution / internal standard solution storage stability; type: physicochemical
[2] = Autosampler stability of calibrators and quality control samples; type: physicochemical; conditions: stored in the autosampler at 10° C.
Experimental: The autosampler stability was evaluated using calibrators and quality control samples (LLOQ, mid-range and ULOQ using both pooled plasma and blank plasma calibrators). Duplicate curves were included with the batch. The first calibration curve was injected, then after 24 hours, the remaining quality control and calibration curve samples were injected. Both calibration curves were used to ascertain accuracy of pooled patient and blank plasma controls. The acceptability criteria is defined such that the standard curve back-fit data should be 80-120% at LLOQ, 85-115% at other concentrations of expected curve values. Mean accuracy of each quality control sample should be ≦±20% at the LLOQ and ≦±15% at all other levels.

Row | Substance | Time internal standard solution is stable ([1]; refrigerated at 4° C.) | Time stock solution is stable ([1]; frozen at −70° C.) | Time stable in the autosampler [2] [h]
1 | [(U-23C9, 15N)-Tyr5], [(U-23C6, 15N)-Leu7], [(U-19C5, 15N)-Pro9]-Gonadorelin [GnRH internal standard] | up to 51 days |  | 
2 | pGlu-His-Trp-Ser-Tyr-Gly-Leu-Arg-Pro-Gly-NH2 [GnRH] |  | up to 376 days | 24
